Columns and labels:
purified protein [1] = substrate: CSc1ccccc1; experiment: purified protein; assay type: biochemical, Leptoxyphium fumago; conditions: 50 mM sodium citrate pH 5.0, 300 μM H2O2, room temperature, apparent, native enzyme
purified protein [2] = substrate: Oc1ccccc1; experiment: purified protein; assay type: biochemical, Leptoxyphium fumago; conditions: 50 mM sodium citrate pH 5.0, 0.2 mM H2O2, 2.4 mM 4-aminoantipyrine, 30 °C in methods (room temperature in text), apparent, native enzyme

B1: Chloroperoxidase (CPO) (Leptoxyphium fumago) (protein)
chain: QEPGSGIGYPYDNNTLPYVAPGPTDSRAPCPALNALANHGYIPHDGRAISRETLQNAFLNHMGIANSVIELALTNAFVVCEYVTGSDCGDSLVNLTLLAEPHAFEHDHSFSRKDYKQGVANSNDFIDNRNFDAETFQTSLDVVAGKTHFDYADMNEIRLQRESLSNELDFPGWFTESKPIQNVESGFIFALVSDFNLPDNDENPLVRIDWWKYWFTNESFPYHLGWHPPSPAREIEFVTSASSAVLAASVTSTPSSLPSGAIGPGAEAVPLSFASTMTPFLLATNAPYYAQDPTLGPND
notes: not chemically modified
Km (purified protein [1]): 1640 ± 90 µM | Km (purified protein [2]): 350 ± 10 µM

Source: paper PMC1891289, “Improvement of activity and stability of chloroperoxidase by chemical modification” (BMC Biotechnology, 2007)
